Holding throughout (test): pull-down
Assay [1] has as its target GST (glutathione-S-transferase)-tagged RPAP3 (human, UniProt Q9H6T3 1-665).
A further assay addresses T1, Dicer 256-595 domain (human, UniProt Q9UPY3 256-595).
T1 sequence: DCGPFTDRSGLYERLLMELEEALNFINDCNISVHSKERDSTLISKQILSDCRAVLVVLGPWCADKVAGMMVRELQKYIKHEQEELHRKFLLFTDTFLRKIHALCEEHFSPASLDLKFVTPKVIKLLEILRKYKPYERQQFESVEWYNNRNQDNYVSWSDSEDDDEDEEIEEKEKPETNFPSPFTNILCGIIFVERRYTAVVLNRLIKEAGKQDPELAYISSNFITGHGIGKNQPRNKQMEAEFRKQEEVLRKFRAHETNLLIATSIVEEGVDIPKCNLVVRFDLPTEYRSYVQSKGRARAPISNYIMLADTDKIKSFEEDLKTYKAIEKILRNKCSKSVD

Assay [2] has as its target RPAP3 TPR1 domain (residues 133-255) (human, UniProt Q9H6T3 133-255).

Data on 2 molecules can be found in publication doi:10.1101/2020.11.11.367672 (bioRxiv, 2020).

Sequence of GST (glutathione-S-transferase)-tagged RPAP3 (Q9H6T3 whole entry, the tested form may be a part): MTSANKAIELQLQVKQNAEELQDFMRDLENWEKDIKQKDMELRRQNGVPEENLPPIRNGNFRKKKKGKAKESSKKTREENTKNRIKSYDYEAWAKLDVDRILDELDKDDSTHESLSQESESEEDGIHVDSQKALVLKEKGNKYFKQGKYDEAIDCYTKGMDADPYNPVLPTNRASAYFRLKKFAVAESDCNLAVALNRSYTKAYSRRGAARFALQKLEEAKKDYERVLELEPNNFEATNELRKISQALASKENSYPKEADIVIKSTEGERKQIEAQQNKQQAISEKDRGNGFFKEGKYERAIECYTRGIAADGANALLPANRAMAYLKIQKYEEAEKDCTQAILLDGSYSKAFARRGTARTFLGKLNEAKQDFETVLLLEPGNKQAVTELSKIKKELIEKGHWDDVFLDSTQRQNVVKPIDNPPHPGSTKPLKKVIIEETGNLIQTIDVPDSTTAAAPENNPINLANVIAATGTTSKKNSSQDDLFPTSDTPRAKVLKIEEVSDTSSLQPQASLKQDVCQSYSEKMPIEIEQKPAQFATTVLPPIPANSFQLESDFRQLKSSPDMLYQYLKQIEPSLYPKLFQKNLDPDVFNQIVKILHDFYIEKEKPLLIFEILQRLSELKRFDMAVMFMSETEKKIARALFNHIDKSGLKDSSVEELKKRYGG
Sequence of RPAP3 TPR1 domain (residues 133-255) (Q9H6T3 133-255): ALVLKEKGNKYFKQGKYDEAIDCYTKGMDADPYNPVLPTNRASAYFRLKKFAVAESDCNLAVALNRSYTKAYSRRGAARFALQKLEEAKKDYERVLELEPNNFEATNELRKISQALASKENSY

B1: His6-tagged TRBP protein (purified recombinant, GST pull-down) (natural protein)
chain: MSEEEQGSGTTTGCGLPSIEQMLAANPGKTPISLLQEYGTRIGKTPVYDLLKAEGQAHQPNFTFRVTVGDTSCTGQGPSKKAAKHKAAEVALKHLKGGSMLEPALEDSSSFSPLDSSLPEDIPVFTAAAAATPVPSVVLTRSPPMELQPPVSPQQSECNPVGALQELVVQKGWRLPEYTVTQESGPAHRKEFTMTCRVERFIEIGSGTSKKLAKRNAAAKMLLRVHTVPLDARDGNEVEPDDDHFSIGVGSRLDGLRNRGPGCTWDSLRNSVGEKILSLRSCSLGSLGALGPACCRVLSELSEEQAFHVSYLDIEELSLSGLCQCLVELSTQPATVCHGSATTREAARGEAARRALQYLKIMAGSK
In the case of B1, the binding result in assay [1] is “binds”.

B2: His6-tagged TRBP dsRBD3 (262-366) (domain or fragment)
chain: GCTWDSLRNSVGEKILSLRSCSLGSLGALGPACCRVLSELSEEQAFHVSYLDIEELSLSGLCQCLVELSTQPATVCHGSATTREAARGEAARRALQYLKIMAGSK
As to B2, the binding result (in the assay with Dicer 256-595 domain; in assay [2]) was “binds” throughout.
